Experimental data reported in patent US11806404B2, “Site specific homogeneous with KSP inhibitors” (BAYER PHARMA AKTIENGESELLSCHAFT, priority 2015, dated 2023).
Read-outs that look alike come from different tables or passages of the source. Blank lines part the entries; values can stand above or below the molecule they belong to.

Legend:
[1] = test system: NCI-H292; experiment: MTT assay, cytotoxic effects of the ADCs; format: cell-based; conditions: Homo sapiens, metabolite
Experimental: (§1) The analysis of the cytotoxic effects of the anti-TWEAKR-ADCs was carried out with various cell lines:
NCI-H292: human mucoepidermoid lung carcinoma cells, ATCC-CRL-1848, standard medium: RPMI 1640 (Biochrom; #FG1215, stab. glutamine)+10% FCS (Biochrom; #S0415), TWEAKR-positive, EGFR-positive.
(§2) The cells are cultivated by a standard method, as indicated in the […] (ATCC) for the respective cell lines.
(§3) The test was carried out by detaching the cells with a solution of Accutase in PBS (Biochrom AG #L2143), pelleting, resuspending in culture medium, counting and seeding the cells into a 96-well culture plate with white bottom (Costar #3610, LoVo:1000 cells/well, SK-HEP-1: 1200 cell/well, NCI H292: 1500 cell/well in a total volume of 100 μL). The cells were then incubated in an incubator at 37° C. and 5% carbon dioxide. After 48 h, the antibody drug conjugates were added in 10 μl of culture medium in concentrations of from 10^−5M to 10^−13M to the cells (triplicates) and incubated in an incubator at 37° C. and 5% carbon dioxide. After 96h, the proliferation was measured using the MTT assay (ATCC, Manassas, Va., USA, catalogue No. 30-1010K). […] The dye formed was detected at 570 nm (Infinite M1000 pro, Fa. Tecan). Based on the measured data the IC50 value was determined from the DRC (dose response curve). […]

[2] = Caco-2 flux assay for cell permeability; format: in vitro ADME; conditions: human; Caco-2, 2 hours
Experimental: The cell permeability of a substance can be investigated by means of in vitro testing in a flux assay using Caco-2 cells [M. D. Troutman and D. R. Thakker, Pharm. Res. 20 (8), 1210-1224 (2003)]. For this purpose, the cells were cultured for 15-16 days on 24-well filter plates. For the determination of permeation, the respective working example was applied in a HEPES buffer to the cells either apically (A) or basally (B) and incubated for 2 hours. After 0 hours and after 2 hours, samples were taken from the cis and trans compartments. The samples were separated by HPLC (Agilent 1200, Böblingen, Germany) using reverse phase columns. The HPLC system was coupled via a Turbo Ion Spray Interface to a Triple Quadropol mass spectrometer API 4000 (Applied Biosystems Applera, Darmstadt, Germany). The permeability was evaluated on the basis of a Papp value, which was calculated using the formula published by Schwab et al. [D. Schwab et al., J. Med. Chem. 46, 1716-1725 (2003)].
Of critical importance for toxophores which are released intracellularly is the permeability from B to A [Papp (B−A)] and the ratio of Papp (B−A) to Papp (A−B) (efflux ratio): the lower this permeability, the slower the active and passive transport processes of the substance through the monolayer of Caco-2 cells.

[3] = test system: KPL4; experiment: MTT assay, cytotoxic effects of the ADCs; format: cell-based; conditions: Homo sapiens, metabolite, read-out: KPL-4 IC50 [M] MTT Assay
Experimental: as §1
KPL4: human breast carcinoma cells, standard medium: RPMI 1640+GlutaMAX I+10% FBS, cell bank, Bayer Pharma AG (identity checked and confirmed on 19 Jul. 2012 at DSMZ), Berlin, ERBB2-positive.
as §2, §3

[4] = biological target: recombinant human TWEAKR protein (TPP-2305) (Homo sapiens (Human), UniProt Q9NP84); experiment: Biacore surface plasmon resonance binding affinity; conditions: for ka / kd: monovalent, 1:1 binding model
Experimental: Binding affinities of anti-TWEAKR antibodies were examined using surface plasmon resonance analysis on a Biacore T100 instrument (GE Healthcare Biacore, Inc.). The antibodies were immobilized on a CMS sensor chip using an indirect capture reagent, anti-human IgG(Fc). Reagents of the “Human Antibody Capture Kit” (BR-1008-39, GE Healthcare Biacore, Inc.) were used as described by the manufacturer. Anti-TWEAKR antibodies were injected at a concentration of 10 μg/ml at 10 μl/min for 10 sec.
Sensorgrams were generated after in-line reference cell correction, followed by subtraction of the buffer sample. The dissociation constant (KD) was calculated based on the ratio of association (kon) and dissociation (koff) constants, obtained by fitting sensorgrams using a 1:1 first order binding model.

[5] = biological target: hTNFRSF12 amino acids a28-80-T33Q-hIgG1-Fc (TPP-1986) (Homo sapiens (Human), UniProt Q9NP84, T33Q); experiment: ELISA mutein binding; conditions: mutein coated 62 ng/ml, biotinylated IgG; read-out: Effect of muteins on antibody binding: T33Q
Experimental: (§4) To this end, the full-length ectodomain (amino acids 28-80) having the individual amino acid substitutions below were expressed and purified as Fc fusion proteins: T33Q; S40R; W42A; M50A; R56P; H60K; L65Q.
(§5) To obtain dose-reaction data, the different TWEAKR-Fc muteins were coated at a low concentration (62 ng/ml) onto a 384-well Maxisorb ELISA plate, and a serial 2-fold dilution of biotinylated IgG beginning with a concentration of 100 nM was used as a soluble binding partner. Detection was carried out using streptavidin-HRP and Amplex Red.
(§6) IgGs were biotinylated using an about 2-fold molar excess of biotin-LC-NHS (Pierce; Cat. No. 21347) according to the instructions of the manufacturer and desalted using Zeba desalting columns (Pierce; Cat. No. 89889). The dose-reaction data were fitted and the IC50s were determined.

[6] = biological target: hTNFRSF12 amino acids a28-80-W42A-hIgG1-Fc (TPP-1985) (Homo sapiens (Human), UniProt Q9NP84, W42A); experiment: ELISA mutein binding; conditions: mutein coated 62 ng/ml, biotinylated IgG; read-out: Effect of muteins on antibody binding: W42A
Experimental: as §4, §5, §6

[7] = biological target: hTNFRSF12 amino acids a28-80-H60K-hIgG1-Fc (TPP-1989) (Homo sapiens (Human), UniProt Q9NP84, H60K); experiment: ELISA mutein binding; conditions: mutein coated 62 ng/ml, biotinylated IgG; read-out: Effect of muteins on antibody binding: H60K
Experimental: as §4, §5, §6

[8] = biological target: hTNFRSF12 amino acids a28-80-S40R-hIgG1-Fc (TPP-1987) (Homo sapiens (Human), UniProt Q9NP84, S40R); experiment: ELISA mutein binding; conditions: mutein coated 62 ng/ml, biotinylated IgG; read-out: Effect of muteins on antibody binding: S40R
Experimental: as §4, §5, §6

[9] = biological target: hTNFRSF12 amino acids a28-80-M50A-hIgG1-Fc (TPP-1988) (Homo sapiens (Human), UniProt Q9NP84, M50A); experiment: ELISA mutein binding; conditions: mutein coated 62 ng/ml, biotinylated IgG; read-out: Effect of muteins on antibody binding: M50A
Experimental: as §4, §5, §6

[10] = biological target: hTNFRSF12 amino acids a28-80-L65Q-hIgG1-Fc (TPP-1990) (Homo sapiens (Human), UniProt Q9NP84, L65Q); experiment: ELISA mutein binding; conditions: mutein coated 62 ng/ml, biotinylated IgG; read-out: Effect of muteins on antibody binding: L65Q
Experimental: as §4, §5, §6

[11] = biological target: hTNFRSF12 amino acids a28-80-R56P-hIgG1-Fc (TPP-2683) (Homo sapiens (Human), UniProt Q9NP84, R56P); experiment: ELISA mutein binding; conditions: mutein coated 62 ng/ml, biotinylated IgG; read-out: Effect of muteins on antibody binding: R56P
Experimental: as §4, §5, §6

[12] = biological target: TWEAKR (Homo sapiens (Human), UniProt Q9NP84); conditions: literature values; read-out: published KD values; cited from earlier work
[13] = biological target: hTNFRSF12 amino acids a28-80-hIgG1-Fc (TPP-599) (Homo sapiens (Human), UniProt Q9NP84); experiment: ELISA mutein binding (wild type); conditions: coated 62 ng/ml, biotinylated IgG; read-out: Effect of muteins on antibody binding: WT
Experimental: as §4, §5, §6

[14] = Biacore, read-out: KD (affinity to TWEAKR)

Molecule: CC(=O)N[C@@H](CCCCNC(=O)CC[C@H](N)C(=O)O)C(=O)NCCNC(=O)[C@@H](N)CCN(C(=O)CO)[C@@H](c1cc(-c2cc(F)ccc2F)cn1Cc1ccccc1)C(C)(C)C.O=C(O)C(F)(F)F [Example M100, N^6-L-gamma-glutamyl-N^2-acetyl-N-[2-({(2S)-2-amino-4-[{(1R)-1-[1-benzyl-4-(2,5-difluorophenyl)-1H-pyrrol-2-yl]-2,2-dimethylpropyl}(glycoloyl)amino]butanoyl}amino)ethyl]-L-lysinamide trifluoro acetate (1:1)]
- IC50 [1]: > 500 nM
- Papp B→A at 2 h [2]: 0.12 ×10⁻⁶ cm/s
- IC50 [3]: > 5e-07 M

- Kd [4, 14]: 0.7 to 3.7 nM
- Kd ([4]; monovalent KD, read-out: KD): 0.4 nM
- ka [4]: 1.32e+06 M⁻¹ s⁻¹
- kd [4]: 0.000564 s⁻¹
B1: P2D3(TPP-2196): comparative anti-TWEAKR antibody; variable domains from patent literature "WO2009/020933 and WO2009/140177", constant region added, "resulting in full-length IgGs" (antibody)
heavy: QVSLKESGPGILQPSQTLSLTCSFSGFSLSTSGMGVSWIRQPSGKGLEWLAHIYWDDDKRYNPSLKSRLTISKDTSRNQVFLKITSVDTADTATYYCARRGPDYYGYYPMDYWGQGTSVTVSAKTTAPSVYPLAPVCGDTTGSSVTLGCLVKGYFPEPVTLTWNSGSLSSGVHTFPAVLQSDLYTLSSSVTVTSSTWPSQSITCNVAHPASSTKVDKKIEPRGPTIKPCPPCKCPAPNLLGGPSVFIFPPKIKDVLMISLSPIVTCVVVDVSEDDPDVQISWFVNNVEVHTAQTQTHREDYNSTLRVVSALPIQHQDWMSGKEFKCKVNNKDLPAPIERTISKPKGSVRAPQVYVLPPPEEEMTKKQVTLTCMVTDFMPEDIYVEWTNNGKTELNYKNTEPVLDSDGSYFMYSKLRVEKKNWVERNSYSCSVVHEGLHNHHTTKSFSRTPG
light: DIVLTQSPASLAVSLGQRATISCRASKSVSTSSYSYMHWYQQKPGQPPKLLIKYTSNLESGVPARFSGSGSGTDFILNIHPVEEEDAATYYCQHSRELPWTFGGGTKLEIKRADAAPTVSIFPPSSEQLTSGGASVVCFLNNFYPKDINVKWKIDGSERQNGVLNSWTDQDSKDSTYSMSSTLTLTKDEYERHNSYTCEATHKTSTSPIVKSFNRNEC
modifications: Mus Musculus

- IC50 [5]: 0.001 to 0.15 nM
- IC50 [6]: > 50 nM
- IC50 [7]: 0.001 to 0.15 nM
- IC50 [8]: 0.001 to 0.15 nM
- IC50 [9]: 0.001 to 0.15 nM
- IC50 [10]: 0.001 to 0.15 nM
- IC50 [11]: > 50 nM
- Kd [4, 14]: 0.7 to 3.7 nM
- ka [4]: 1.64e+07 M⁻¹ s⁻¹
- kd [4]: 0.0285 s⁻¹
- IC50 [13]: 0.001 to 0.15 nM
B2: 18.3.3(TPP-2193): comparative anti-TWEAKR antibody; variable domains "obtained from the patent literature WO2009/020933", constant region added, "resulting in full-length IgGs" (antibody)
heavy: EVKLGESGGGLVQPGGSMKLSCVASGFPFTKYWMNWVRQSPEKGLEWVAEIRLKSDNYATHYAESAKGRFTISRDDSRSSVYLQMNNLRAEDTAIYYCSPTYADTMDYWGQGTSVTVSSAKTTAPSVYPLAPVCGDTTGSSVTLGCLVKGYFPEPVTLTWNSGSLSSGVHTFPAVLQSDLYTLSSSVTVTSSTWPSQSITCNVAHPASSTKVDKKIEPRGPTIKPCPPCKCPAPNLLGGPSVFIFPPKIKDVLMISLSPIVTCVVVDVSEDDPDVQISWFVNNVEVHTAQTQTHREDYNSTLRVVSALPIQHQDWMSGKEFKCKVNNKDLPAPIERTISKPKGSVRAPQVYVLPPPEEEMTKKQVTLTCMVTDFMPEDIYVEWTNNGKTELNYKNTEPVLDSDGSYFMYSKLRVEKKNWVERNSYSCSVVHEGLHNHHTTKSFSRTPG
light: DIVLTQSPASLAVSLGQRATISCKASQSVSTSTYSYMQWYQQRPGQSPKLLIKYASKLDSGVPARFSGSGSGTDFTLNIHPVEEEDTATYYCQHSWELPYTFGGGTRLEIKRADAAPTVSIFPPSSEQLTSGGASVVCFLNNFYPKDINVKWKIDGSERQNGVLNSWTDQDSKDSTYSMSSTLTLTKDEYERHNSYTCEATHKTSTSPIVKSFNRNEC
modifications: Mus Musculus
- Kd [12]: 0.2 nM
